B1: BDNF: brain-derived neurotrophic factor (Promega), neurotrophic protein (protein, UniProt P23560 129-247, looked up)
Neurotrophic factor BDNF: HSDPARRGELSVCDSISEWVTAADKKTAVDMSGGTVTVLEKVPVSKGQLKQYFYETKCNPMGYTKEGCRGIDKRHWNSQCRTTQSYVRALTMDSKKRIGWRFIRIDTSCVCTLTIKRGR
modifications: Neurotrophic factor BDNF
notes: brain-derived neurotrophic factor (Promega), neurotrophic protein

System: second trimester human fetal neuroglial cultures
Assay: Second trimester human fetal neuroglial cultures treated with FK506 and/or BDNF; MAP-2/GFAP immunostaining and propidium iodide cell counts by laser confocal microscopy
Assay type: cell-based
Protocol: Surgical pathology fetal specimens were collected and processed in accordance with the University of Pittsburgh Human Tissue Committee guidelines. Human telencephalic tissues (18-21 weeks of gestation) were collected and placed in DMEM medium (Life Technologies Inc., Grand Island, N.Y.). […] Tissue processing followed a modified mouse brain dissociation protocol. Within 1 hour of collection, the brain material was placed in Ca^++-and Mg^++-free DPBS (Life Technologies), cleaned of meninges, rinsed and minced. Tissue fragments were incubated in 0.05% trypsin-EDTA with additives (Life Technologies) for 5 min at 37° C. and further dissociated. Trypsin inhibitor (10 mg/ml; Sigma, St. Louis, Mo.) was subsequently added, followed by centrifugation for 5 min at 250×g. After filtering through 70 μm nylon-mesh cell strainers (Becton Dickinson, Franklin Lakes, N.J.), the cell suspension was cleaned by gradient centrifugation through an 8% BSA (Sigma) layer (250×g, 10 min). A second filtering was performed using 70 μm and 40 μm nylon-mesh cell strainers (Becton Dickinson). The single cell suspension was counted on a hemocytometer using trypan blue exclusion, brought to a final density of 10^6 cells/ml and plated on poly-l-ornithine (Sigma) and laminin (Life Technologies) coated 12 mm glass coverslips (Fisher, Pittsburgh, PA) on 24-well plates (Becton Dickinson).
Throughout the experiments standard tissue culture techniques were used, in combination with the drug protocol. More specifically, cultures were incubated in 10% CO2 at 37° C. and fed every other day for 1, 5, 12, or 21 days with fresh NPMM (Bio Whittaker, San Diego, Calif.), followed by NPMM with or without various concentrations of FK506 (provided by Dr. A. Zeevi) and/or BDNF (5 ng/ml, Promega, Madison, Wis.).
In an attempt to identify the cell phenotype that is most affected by different treatments, the neuroglial cultures were immunostained for the neuronal marker MAP-2 and the astrocytic marker GFAP. After 7 days of treatment, cultures were washed with PBS and PBS with 0.05% Tween 20 (Sigma), fixed with 4% paraformaldehyde for 30 min and then incubated for 30 min with PBS with 0.2% BSA and 0.1% Triton X (Sigma). Without washing, cultures were incubated overnight at 4° C. with the primary antibodies mouse anti-MAP-2(1:500, Stemberger Monoclonals Inc., Baltimore, Md.) and rabbit anti-GFAP (1:100, Dako, Capinteria, Calif.). After thorough washing with PBS+0.05% Tween 20, a secondary antibody (FITC-conjugated goat anti- mouse and FITC- conjugated goat anti- rabbit) was applied for 2 hours (1:200, Jackson Immuno, West Grove, Pa.). All antibodies were diluted in common antibody diluent (ScyTek, Logan, Utah). RNase A (10 μg/ml; Sigma) was added during the secondary antibody incubation (20 min), followed by the nuclear stain propidium iodide (5 μg/ml, Sigma). Propidium iodide was used to allow quantification of cell numbers for each treatment condition, using LCM and ImageSpace software as described below. Coverslips were then washed and mounted on glass slides (Fisher) using gelvatol fluorescence mounting medium.
A quantitative assessment of the results (i.e., the numbers of cell nuclei stained with propidium iodide and areas covered by immunofluorescent marker staining) using laser confocal microscopy and ImageSpace software (Molecular Dynamics, Sunnyvale, Calif.) was carried out as follows: six randomly chosen fields were analyzed per coverslip (well). The Argon/Krypton laser confocal microscope 40× objective with oil immersion lens (Model 2001, Molecular Dynamics) was used. Images of 512×512 pixels were collected at a pixel size of […]. Vertical sections were acquired in order to define vertical borders for the collection of Z-series. The step size between adjacent sections was […]. FITC was excited with a wavelength of 488 nm and collected with a 530DF30 filter. Propidium iodide was excited with a wavelength of 568 nm and collected with a 590DFLP filter. […]

| Molecule | toxic effects (higher concentrations of FK506) | neurite outgrowth / neuronal processes extension | enhancement of neuronal differentiation (5 ng/ml, 7 days of treatment) | MAP-2 surface/cell number ratio (5 ng/ml, 7 days of treatment starting at DIC 12, vs control) | GFAP surface/cell number ratio (GFAP expression) (7 days of treatment, vs control) | number of neurons (BDNF: NeuN immunostaining, unpublished observations) |
| --- | --- | --- | --- | --- | --- | --- |
| C=CC[C@@H]1/C=C(\C)C[C@H](C)C[C@H](OC)[C@H]2O[C@@](O)(C(=O)C(=O)N3CCCC[C@H]3C(=O)O[C@H](/C(C)=C/[C@@H]3CC[C@@H](O)[C@H](OC)C3)[C@H](C)[C@@H](O)CC1=O)[C@H](C)C[C@@H]2OC [FK506, reference compound] | did not appear to exert toxic effects | – | – | – | – | – |
| B1 | – | tends to increase | not significant | not significantly different from control | decreased | modestly increasing |

Source: patent US7041283B1, “Methods of using immunophilin binding drugs to improve integration and survival of neuronal cell transplants” (University of Pittsburgh-Of the Commonwealth System of …, priority 2001, dated 2006)
